Values of other authors in US20260263353A1, “PROGRAMMABLE DRUG-DEVICE MICRONEEDLE SYSTEM FOR THE DELIVERY AND MONITORING OF DIABETES AND OBESITY MEDICATIONS” (ALJ Creative Works, LLC, priority 2023, published 2026).

Conditions: once weekly dosing at clinically relevant doses; literature reference [26]

Insulin ICODEC
half-life: about 196 hours | safety and tolerability: safe and well-tolerated
